From PMC11050682, “https://orcid.org/0009-0003-0282-9605 Pérez-Mora Salvador Conceptualization Methodology Software Validation Formal analysis Investigation Data curation Writing – original draft Writing – review & edit”

Target: T1, drEhHSTF5 (dimeric rEhHSTF5, fraction 10) (Entamoeba histolytica, UniProt C4M5X4 1-329)
T1 sequence: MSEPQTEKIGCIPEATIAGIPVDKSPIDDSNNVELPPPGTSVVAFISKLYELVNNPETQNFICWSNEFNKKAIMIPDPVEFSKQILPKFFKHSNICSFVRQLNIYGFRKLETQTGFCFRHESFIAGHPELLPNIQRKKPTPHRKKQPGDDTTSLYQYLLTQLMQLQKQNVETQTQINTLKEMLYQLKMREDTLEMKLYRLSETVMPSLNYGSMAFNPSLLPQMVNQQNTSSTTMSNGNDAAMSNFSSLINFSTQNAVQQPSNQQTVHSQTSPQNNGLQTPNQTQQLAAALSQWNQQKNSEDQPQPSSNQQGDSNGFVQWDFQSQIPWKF
Experiment: competition; 150x molar excess; complex reduced
Settings: protein: recombinant; tags: N-terminal His6 (pET-28a); chain copies: 2; blunt

B1: HSE_EhPgp5 unlabelled (specific competitor) (dsDNA)
DNA 1: ATAGAAATTTTTCATA
DNA 2: TATGAAAAATTTCTAT
B1: binds.
